The values below come from article PMC5829251, “NAD^+ analog reveals PARP-1 substrate-blocking mechanism and allosteric communication from catalytic center to DNA-binding domains” (Nature Communications, 2018).

The data set concerns the target PARP-1 WT (human) (UniProt P09874). The data set can be described thus: fluorescence polarization. Particulars: 250 mM NaCl, FP affinity: 12 mM Hepes pH 8.0, 250 mM NaCl, 4% glycerol, 5.7 mM beta-mercaptoethanol, 0.05 mg/ml BSA, RT, 5 nM probe, FP competition: same but 60 mM KCl, 8 mM. (Polarisation of emitted light reports the rotation of a fluorescent probe.)

Chain of PARP-1 WT (human) (P09874 whole entry): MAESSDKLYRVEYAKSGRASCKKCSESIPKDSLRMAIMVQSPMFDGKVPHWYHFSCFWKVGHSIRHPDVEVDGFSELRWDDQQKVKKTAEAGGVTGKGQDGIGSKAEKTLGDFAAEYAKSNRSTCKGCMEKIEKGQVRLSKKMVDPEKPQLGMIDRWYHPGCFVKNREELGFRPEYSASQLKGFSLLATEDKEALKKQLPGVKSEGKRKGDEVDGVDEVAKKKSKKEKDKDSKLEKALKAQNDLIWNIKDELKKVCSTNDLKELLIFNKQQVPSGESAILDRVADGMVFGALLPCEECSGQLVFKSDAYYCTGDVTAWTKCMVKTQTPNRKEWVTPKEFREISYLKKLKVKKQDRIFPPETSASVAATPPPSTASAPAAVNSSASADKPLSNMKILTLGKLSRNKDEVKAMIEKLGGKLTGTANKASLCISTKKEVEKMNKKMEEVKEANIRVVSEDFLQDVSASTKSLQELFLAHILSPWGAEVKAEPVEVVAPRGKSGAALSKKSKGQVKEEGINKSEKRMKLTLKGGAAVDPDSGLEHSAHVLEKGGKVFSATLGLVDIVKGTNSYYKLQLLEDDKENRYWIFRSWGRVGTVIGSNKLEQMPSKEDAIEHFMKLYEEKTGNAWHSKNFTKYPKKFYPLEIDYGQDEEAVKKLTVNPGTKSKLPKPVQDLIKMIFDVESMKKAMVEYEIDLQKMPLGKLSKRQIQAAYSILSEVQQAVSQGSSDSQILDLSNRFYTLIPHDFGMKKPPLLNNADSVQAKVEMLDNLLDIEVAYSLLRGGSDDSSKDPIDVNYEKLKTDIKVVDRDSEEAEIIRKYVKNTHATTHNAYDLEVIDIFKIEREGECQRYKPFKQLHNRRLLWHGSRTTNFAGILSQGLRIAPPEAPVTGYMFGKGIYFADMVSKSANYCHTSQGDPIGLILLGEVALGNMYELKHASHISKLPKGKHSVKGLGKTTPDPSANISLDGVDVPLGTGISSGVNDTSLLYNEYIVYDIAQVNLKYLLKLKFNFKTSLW

In the case of “GCTGAGCTTCTGGTGAAGCTCAGCTCGCGGCAGCTGGTGCTGCCGCGA [nick dumbbell DNA, FAM]”, for the setting “100 uM BAD”, the binding signal (fold higher affinity than without BAD) turned out to be 10. The sequence also yielded a binding signal (100 uM benzamide, scale: fold) of 1.
